Source: US8961929B2, “Targeting agent for tumor site” (FUJIFILM Corporation, priority 2010, dated 2015)

Experiment: Isoelectric point of gelatin
Type: physicochemical
Conditions: recombinant gelatin CBE3

## CBE3: recombinant gelatin, SEQ ID NO: 1, Gly-Ala-Pro[(Gly-X-Y)63]3Gly, 571 amino acids, 12 RGD sequences
  Isoelectric point: 9.34
